The source of these data is US20060234285A1 (Human Genome Sciences, published 2006).

B4: TNF-gamma-beta, full length, on transfected cells (ligand, human, UniProt O95150 1-251, looked up)
chain: MAEDLGLSFGETASVEMLPEHGSCRPKARSSSARWALTCCLVLLPFLAGLTTYLLVSQLRAQGEACVQFQALKGQEFAPSHQQVYAPLRADGDKPRAHLTVVRQTPTQHFKNQFPALHWEHELGLAFTKNRMNYTNKFLLIPESGDYFIYSQVTFRGMTSECSEIRQAGRPNKPDSITVVITKVTDSYPEPTQLLMGTKSVCEVGSNWFQPIYLGAMFSLQEGDKLMVNVSDISLVDYTKEDKTFFGAFLL
notes: whole, on cells; also called TL1β
B6: Full-length human TR6 (without Fc) (receptor)
chain: VAETPTYPWRDAETGERLVCAQCPPGTFVQRPCRRDSPTTCGPCPPRHYTQFWNYLERCRYCNVLCGEREEEARACHATHNRACRCRTGFFAHAGFCLEHASCPPGAGVIAPGTPSQNTQCQPCPPGTFSASSSSSEQCQPHRNCTALGLALNVPGSSSHDTLCTSCTGFPLSTRVPGAEECERAVIDFVAFQDISIKRLQRLLQALEAPEGWGPTPRAGRAALQLKLRRRLTELLGAQDGALLVRLLQALRVARMPGLERSVRERFLPVH
notes: Full-length cDNA expressed in Sf9 cells with the natural leader; also called TR6 non-Fc; TR6-non-Fc
B7: Human LIGHT protein, natural secreted form (aa83-240) (ligand, UniProt O43557 83-240, looked up)
chain: LIQERRSHEVNPAAHLTGANSSLTGSGGPLLWETQLGLAFLRGLSYHDGALVVTKAGYYYIYSKVQLGGVGCPLGLASTITHGLYKRTPRYPEELELLVSQQSPCGRATSSSRVWWDSSFLGGVVHLEAGEKVVVRVLDERLVRLRDGTRSYFGAFMV
notes: range 83-240; also called soluble LIGHT

The target in experiment [1] is T1, Recombinant, untagged TNF-gamma-beta protein (aa 72-251) from E. coli (human, UniProt O95150 72-251).
T1 construct: also called TL1β; recombinant TL1β protein
T1 sequence (looked up): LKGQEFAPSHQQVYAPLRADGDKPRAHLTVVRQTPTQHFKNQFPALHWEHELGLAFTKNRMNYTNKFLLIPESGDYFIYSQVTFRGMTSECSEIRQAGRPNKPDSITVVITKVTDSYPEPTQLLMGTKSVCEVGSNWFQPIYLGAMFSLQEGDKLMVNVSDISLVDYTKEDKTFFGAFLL
Description: BIAcore, receptor-Fc immobilized. How it is done:
(§1) TNFR-Fc were covalently immobilized to the BIAcore sensor chip (CM5 chip) via amine groups using N-ethyl-N′-(dimethylaminopropyl) carbodiimide/N-hydroxysuccinimide chemistry. […] The amount of bound protein was determined during washing of the flow cell with HBS buffer (10 mM HEPES, pH 7.4, 150 mM NaCl, 3.4 mM EDTA, 0.005% Surfactant P20). The flow cell surface was regenerated by displacing bound protein by washing with 20 microliters of 10 mM glycine-HCl, pH 2.3. For kinetic analysis, the on and off rates were determined using the kinetic evaluation program in BIAevaluation 3 software using a 1:1 binding model and the global analysis method.
A general note: Surface plasmon resonance follows binding to a sensor surface in real time, without labels.

The target of experiment [2] is B7. Description: BIAcore, TR2-Fc immobilized, LIGHT in flow; TR2-Fc. How it is done: (§2) The amount of bound protein was determined during washing of the flow cell with HBS buffer (10 mM HEPES, pH 7.4, 150 mM NaCl, 3.4 mM EDTA, 0.005% Surfactant P20). The flow cell surface was regenerated by washing off the bound proteins with 20 microliters of 10 mM glycine-HCl pH 2.3. […] The on- and off-rates were determined according a kinetic evaluation program in the BiaEvaluation 3 software using a 1:1 binding model and the global analysis method.

Experiment [3] deals with T2, TNFR-6 alpha-Fc fusion protein (full length TNFR-6 alpha, amino acids 1-300 of SEQ ID NO:2, fused to the Fc … (human, UniProt O95407 30-300)).
T2 construct: Construct M1-H300 fused to Fc (pA2Fc:TR6, baculovirus/Sf9); the secreted protein starts at Val 30 and is a disulfide-linked dimer; also called TNFR6-Fc; TR6-Fc
T2 sequence: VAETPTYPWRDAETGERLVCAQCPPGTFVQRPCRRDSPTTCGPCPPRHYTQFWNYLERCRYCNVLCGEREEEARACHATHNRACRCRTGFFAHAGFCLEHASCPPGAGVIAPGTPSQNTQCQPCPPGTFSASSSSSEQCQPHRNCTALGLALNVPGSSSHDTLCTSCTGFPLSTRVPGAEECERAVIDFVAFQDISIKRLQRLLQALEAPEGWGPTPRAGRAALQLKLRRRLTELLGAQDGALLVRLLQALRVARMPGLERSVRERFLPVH
Description: conclusion from flow cytometry. On the technique in general: In flow cytometry, cells or beads pass a laser one at a time.

Experiment [4] concerns the target B6. Description: flow cytometry competition on activated human T cells.
Experiment [5] deals with T2, TNFR-6 alpha-Fc fusion protein (full …). Description: FACS on transfected cells.
For another experiment, the target named is T3, DR6-Fc (UniProt O75509 42-349, limits assumed).
T3 construct: extracellular domain
T3 sequence (looked up): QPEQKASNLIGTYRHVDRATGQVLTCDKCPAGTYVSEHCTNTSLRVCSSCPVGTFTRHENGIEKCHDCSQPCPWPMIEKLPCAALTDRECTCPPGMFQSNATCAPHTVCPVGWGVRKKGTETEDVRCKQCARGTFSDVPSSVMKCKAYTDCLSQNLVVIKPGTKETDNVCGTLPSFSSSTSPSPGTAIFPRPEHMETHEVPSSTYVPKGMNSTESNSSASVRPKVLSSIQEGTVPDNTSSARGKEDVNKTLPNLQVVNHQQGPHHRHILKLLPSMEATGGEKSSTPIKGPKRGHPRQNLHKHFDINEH
Description: flow cytometry on HEK293F cells expressing full length TNF-gamma-beta. How it is done: (§3) One million cells, in 0.1 ml of FACS buffer (PBS, 0.1% BSA, 0.1% NaN₃), were incubated with 0.1-1 microgram of protein or antibody at RT for 15 min. The cells were washed with 3 ml of FACS buffer, reacted with biotinylated primary antibody, and stained with PE-conjugated secondary antibody at RT for 15 min. Cells were then washed again, resuspended in 0.5 microgram/ml of propidium iodide, and live cells were gated and analyzed on a FACScan using the CellQuest software (BD Biosciences).

Experiment [6] deals with T1, Recombinant, untagged TNF-gamma-beta …. Description: BIAcore, DR3-Fc immobilized, TNF-gamma-beta 3-370 nM in flow; DR3-Fc. How it is done:
as §1

For experiment [7] the target is unchanged. Description: BIAcore, three batches of TNF-gamma-beta; DR3-Fc, average of three batches. How it is done:
as §1

Experiment [8] has as its target T4, Soluble human FLAG-FasL (synthesized at HGS) (human, UniProt P48023 130-281, limits assumed).
T4 construct: called trimerized in the kinetic BIAcore run; cross-linked with FLAG antibody in the cell assays; also called FasL-Flag; trimerized FLAG-FasL
T4 sequence (looked up): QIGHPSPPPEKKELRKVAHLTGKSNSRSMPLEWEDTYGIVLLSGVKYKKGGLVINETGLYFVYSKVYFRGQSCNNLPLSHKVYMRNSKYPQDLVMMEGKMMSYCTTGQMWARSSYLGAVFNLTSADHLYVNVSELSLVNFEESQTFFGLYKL
Description: BIAcore.

The target of experiment [9] is B7. Description: BIAcore.
Experiment [10] deals with B4. Description: flow cytometry competition, competitor DR3-Fc. How it is done: as §3
In experiment [11] the target is T5, Murine FasL on transfected murine L929 cells (murine, UniProt P41047 1-279).
T5 sequence (looked up): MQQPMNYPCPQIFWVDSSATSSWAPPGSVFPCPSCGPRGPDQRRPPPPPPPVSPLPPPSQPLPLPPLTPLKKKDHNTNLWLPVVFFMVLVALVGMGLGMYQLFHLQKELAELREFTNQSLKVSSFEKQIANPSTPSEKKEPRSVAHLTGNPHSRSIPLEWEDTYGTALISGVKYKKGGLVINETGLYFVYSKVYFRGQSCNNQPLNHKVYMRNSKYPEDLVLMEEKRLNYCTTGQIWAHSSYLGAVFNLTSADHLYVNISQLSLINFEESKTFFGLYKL
Description: cell-based or functional assay.

The target of experiment [12] is T2, TNFR-6 alpha-Fc fusion protein (full …). Description: BIAcore; TR6-Fc. How it is done:
as §2

The target is the same in experiment [13]. Description: BIAcore, receptor immobilized, LIGHT in flow; TR6-Fc. How it is done: as §2
The target of experiment [14] is B6. Description: BIAcore; TR6 without Fc. How it is done:
as §2

Usually Kd stands for the equilibrium constant for the complex coming apart. For orientation: koff means a measure of how fast the partners let go of each other. In general, kon refers to the rate constant with which the complex forms.

B1: BCMA-Fc (Fc fusion, human, UniProt Q02223 1-54, looked up, not shown: a dimerising Fc or GST)
chain: MLQMAGQCSQNEYFDSLLHACIPCQLRCSSNTPPLTCQRYCNASVTNSVKGTNA
notes: Control surface in the BIAcore analysis
Consider B1, for which the binding result in [1] is “no binding (tested: 3-370 nM)”.

B2: Human TR2-Fc (extracellular domain of TR2, aa1-192, fused to the Fc domain of human IgG1) (Fc fusion, not shown: a dimerising Fc or GST)
chain: LPSCKEDEYPVGSECCPKCSPGYRVKEACGELTGTVCEPCPPGTYIAHLNGLSKCLQCQMCDPAMGLRASRNCSRTENAVCGCSPGHFCIVQDGDHCAACRAYATSSPGQRVQKGGTESQDTLCQNCPPGTFSPNGTLEECQHQTKCSWLVTKA
notes: From CHO cells
In experiment [2], B2 had a Kd of 4.56 nM.

B3: Human LIGHT, full length, on cells (stably transfected 293F cells; endogenous on activated human T cells) (ligand, UniProt O43557 1-240, looked up)
chain: MEESVVRPSVFVVDGQTDIPFTRLGRSHRRQSCSVARVGLGLLLLLMGAGLAVQGWFLLQLHWRLGEMVTRLPDGPAGSWEQLIQERRSHEVNPAAHLTGANSSLTGSGGPLLWETQLGLAFLRGLSYHDGALVVTKAGYYYIYSKVQLGGVGCPLGLASTITHGLYKRTPRYPEELELLVSQQSPCGRATSSSRVWWDSSFLGGVVHLEAGEKVVVRVLDERLVRLRDGTRSYFGAFMV
notes: whole, on cells; also called LIGHT-transfectants; cell membrane LIGHT
For the molecule B3, the binding result in experiment [3] and in experiment [4] was “binds” throughout.
For the molecule B4, the binding result is “binds” in [5] and “no binding” with DR6-Fc.

B5: DR3-Fc (extracellular domain of human DR3, aa 1-199, fused to the Fc domain of human IgG1) (Fc fusion, UniProt Q93038 25-199, looked up, not shown: a dimerising Fc or GST)
chain: QGGTRSPRCDCAGDFHKKIGLFCCRGCPAGHYLKAPCTEPCGNSTCLVCPQDTFLAWENHHNSECARCQACDEQASQVALENCSAVADTRCGCKPGWFVECQVSQCVSSSPFYCQPCLDCGALHRHTRLLCSRRDTDCGTCLPGFYEHGDGCVSCPTSTLGSCPERCAAVCGWRQ
notes: range 1-199
With B5, in experiment [6], the koff came to 0.00413 s⁻¹ and the kon was 639000 M⁻¹ s⁻¹. In addition, in [7], the Kd is 6.45 nM.
As to B6, the “fold reduction in affinity against TR6-Fc” value in experiment [8] stood at 4 fold. Further, the “fold higher off rate against TR6-Fc” value in experiment [9] is ~2 fold. In addition, in experiment [10], the “molar ratio of TR6 to DR3-Fc at which no DR3-Fc binding was detected” value was 2 molar ratio (TR6:DR3-Fc). Also, the “IC50 of inhibition of killing of A20 target cells by murine FasL-transfected L929 cells” value in experiment [11] was ~1 ng/mL.
Turning to B7, the koff in experiment [12] is 0.0023 s⁻¹; in experiment [14], 0.00483 s⁻¹. In addition, the kon was determined as 422000 M⁻¹ s⁻¹ in experiment [12] and 338000 M⁻¹ s⁻¹ in [14]. Besides, the figures for the Kd in experiment [13] and in [14] were 5.46 nM and 14.3 nM, respectively.
